Source: patent publication US20250276077A1, “EPHA2 ANTIBODIES” (Immunome, Inc., priority 2022, published 2025)

Key:
[1] = molecular target: Human EphA2 (ephrin receptor A2), native, in human tumor tissue (human) (UniProt P29317); assay: IF tumor tissue ESO, 1 ug/ml
[2] = molecular target: Human EphA2 (ephrin receptor A2), native, in human tumor tissue (human) (UniProt P29317); assay: IF tumor tissue STS, 1 ug/ml
[3] = molecular target: Human EphA2 (ephrin receptor A2), native, in human tumor tissue (human) (UniProt P29317); assay: IF tumor tissue STS, 3 ug/ml
[4] = molecular target: Human EphA2 (ephrin receptor A2), native, in human tumor tissue (human) (UniProt P29317); assay: IF tumor tissue URO, 3 ug/ml
[5] = molecular target: Human EphA2 (ephrin receptor A2), native, in human tumor tissue (human) (UniProt P29317); assay: IF tumor tissue ESO, 30 ug/ml
[6] = molecular target: Human EphA2 (ephrin receptor A2), native, in human tumor tissue (human) (UniProt P29317); assay: IF tumor tissue MELA, 1 ug/ml
[7] = molecular target: Human EphA2 (ephrin receptor A2), native, in human tumor tissue (human) (UniProt P29317); assay: IF tumor tissue PANC, 1 ug/ml
[8] = molecular target: Human EphA2 (ephrin receptor A2), native, in human tumor tissue (human) (UniProt P29317); assay: IF tumor tissue PANC, 3 ug/ml
[9] = molecular target: Human EphA2 (ephrin receptor A2), native, in human tumor tissue (human) (UniProt P29317); assay: IF tumor tissue STS, 10 ug/ml
[10] = molecular target: Human EphA2 (ephrin receptor A2), native, in human tumor tissue (human) (UniProt P29317); assay: IF tumor tissue STS, 30 ug/ml
[11] = molecular target: Human EphA2 (ephrin receptor A2), native, in human tumor tissue (human) (UniProt P29317); assay: IF tumor tissue URO, 10 ug/ml
[12] = molecular target: Human EphA2 (ephrin receptor A2), native, in human tumor tissue (human) (UniProt P29317); assay: IF tumor tissue ESO, 0.1 ug/ml
[13] = molecular target: Human EphA2 (ephrin receptor A2), native, in human tumor tissue (human) (UniProt P29317); assay: IF tumor tissue STS, 0.1 ug/ml
[14] = molecular target: Human EphA2 (ephrin receptor A2), native, in human tumor tissue (human) (UniProt P29317); assay: IF tumor tissue STS, 0.3 ug/ml
[15] = molecular target: Human EphA2 (ephrin receptor A2), native, in human tumor tissue (human) (UniProt P29317); assay: IF tumor tissue URO, 0.3 ug/ml
[16] = molecular target: Human EphA2 (ephrin receptor A2), native, in human tumor tissue (human) (UniProt P29317); assay: IF tumor tissue MELA, 0.1 ug/ml
[17] = molecular target: Human EphA2 (ephrin receptor A2), native, in human tumor tissue (human) (UniProt P29317); assay: IF tumor tissue PANC, 0.1 ug/ml
[18] = molecular target: Human EphA2 (ephrin receptor A2), native, in human tumor tissue (human) (UniProt P29317); assay: IF tumor tissue PANC, 0.3 ug/ml
[19] = molecular target: Human EphA2 (ephrin receptor A2), native, in human tumor tissue (human) (UniProt P29317); assay: IF tumor tissue Uterine, 1 ug/ml
[20] = molecular target: Human EphA2 (ephrin receptor A2), native, in human tumor tissue (human) (UniProt P29317); assay: IF tumor tissue NSCLC-SQ, 3 ug/ml
[21] = molecular target: Human EphA2 (ephrin receptor A2), native, in human tumor tissue (human) (UniProt P29317); assay: IF tumor tissue Uterine, 10 ug/ml
[22] = molecular target: Human EphA2 (ephrin receptor A2), native, in human tumor tissue (human) (UniProt P29317); assay: IF tumor tissue Uterine, 30 ug/ml
[23] = molecular target: Human EphA2 (ephrin receptor A2), native, in human tumor tissue (human) (UniProt P29317); assay: IF tumor tissue Uterine, 0.3 ug/ml
[24] = molecular target: Human EphA2 (ephrin receptor A2), native, in human tumor tissue (human) (UniProt P29317); assay: IF tumor tissue NSCLC-Adeno, 10 ug/ml
[25] = molecular target: Human EphA2 (ephrin receptor A2), native, in human tumor tissue (human) (UniProt P29317); assay: IF tumor tissue NSCLC-Adeno, 30 ug/ml
[26] = molecular target: Human EphA2 (ephrin receptor A2), native, in human tumor tissue (human) (UniProt P29317); assay: IF tumor tissue NSCLC-Adeno, 0.3 ug/ml
[27] = molecular target: Human EphA2 (ephrin receptor A2), native, in human tumor tissue (human) (UniProt P29317); assay: IF tumor tissue RCC-papillary, 3 ug/ml
[28] = molecular target: Human EphA2 (ephrin receptor A2), native, in human tumor tissue (human) (UniProt P29317); assay: IF tumor tissue RCC-papillary, 30 ug/ml
[29] = molecular target: Human EphA2 (ephrin receptor A2), native, in human tumor tissue (human) (UniProt P29317); assay: IF tumor tissue RCC-papillary, 0.1 ug/ml
[30] = molecular target: Human EphA2 (ephrin receptor A2), native, in human tumor tissue (human) (UniProt P29317); assay: IF tumor tissue RCC-papillary, 0.3 ug/ml
[31] = molecular target: Human EphA2 (ephrin receptor A2), native, in human tumor tissue (human) (UniProt P29317); assay: tissue staining of human cancer samples, 10 ug/ml
[32] = molecular target: C-terminally His-tagged hEphA2-FN2 (Thr437-Asn534+His tag) (human) (UniProt P29317); assay: SPR Biacore T200, 25 C; mIgG2a as immobilized ligand, hEphA2-FN2-His analyte
C-terminally His-tagged hEphA2-FN2 (Thr437-Asn534+His tag) (human), sequence (P29317 437-534 limits assumed): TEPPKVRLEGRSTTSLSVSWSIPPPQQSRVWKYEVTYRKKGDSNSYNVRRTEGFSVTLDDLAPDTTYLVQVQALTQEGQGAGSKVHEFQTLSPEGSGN

Human EphA2 (ephrin receptor A2), native, in human tumor tissue (human), sequence (P29317 25-976): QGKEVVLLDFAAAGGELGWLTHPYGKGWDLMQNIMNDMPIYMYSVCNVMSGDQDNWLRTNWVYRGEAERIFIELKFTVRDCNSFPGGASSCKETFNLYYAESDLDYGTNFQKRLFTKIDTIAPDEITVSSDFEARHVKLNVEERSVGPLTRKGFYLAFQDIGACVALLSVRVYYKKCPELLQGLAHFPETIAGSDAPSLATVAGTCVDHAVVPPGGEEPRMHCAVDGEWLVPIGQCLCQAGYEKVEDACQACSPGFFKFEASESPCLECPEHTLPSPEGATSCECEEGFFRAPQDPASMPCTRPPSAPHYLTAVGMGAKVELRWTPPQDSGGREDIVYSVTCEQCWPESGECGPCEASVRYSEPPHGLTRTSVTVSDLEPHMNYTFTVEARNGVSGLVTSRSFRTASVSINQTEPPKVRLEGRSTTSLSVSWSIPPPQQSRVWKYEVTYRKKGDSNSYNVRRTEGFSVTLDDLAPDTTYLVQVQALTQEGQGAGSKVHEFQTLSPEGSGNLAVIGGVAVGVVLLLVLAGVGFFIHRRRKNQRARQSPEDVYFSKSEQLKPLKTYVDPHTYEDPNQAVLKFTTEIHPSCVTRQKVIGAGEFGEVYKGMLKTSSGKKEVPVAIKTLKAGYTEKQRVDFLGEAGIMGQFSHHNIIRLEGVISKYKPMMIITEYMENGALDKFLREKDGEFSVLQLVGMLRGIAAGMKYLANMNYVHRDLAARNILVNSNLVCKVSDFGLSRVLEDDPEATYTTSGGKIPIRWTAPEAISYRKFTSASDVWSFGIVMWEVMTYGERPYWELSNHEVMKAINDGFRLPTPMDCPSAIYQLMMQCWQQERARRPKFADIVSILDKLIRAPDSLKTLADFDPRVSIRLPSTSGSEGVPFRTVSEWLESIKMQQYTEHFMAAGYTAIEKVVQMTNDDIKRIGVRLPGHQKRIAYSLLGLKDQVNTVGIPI

## AB-010018 (mouse monoclonal antibody precursor of DS-8895a; mouse IgG2a format)
[1]
  tissue reactivity score: 1
[2]
  tissue reactivity score: 1
[3]
  tissue reactivity score: 1
[4]
  tissue reactivity score: 2
[5]
  tissue reactivity score: 2
[6]
  tissue reactivity score: 2
[7]
  tissue reactivity score: 2
[8]
  tissue reactivity score: 2
[9]
  tissue reactivity score: 1
[10]
  tissue reactivity score: 2
[11]
  tissue reactivity score: 2
[12]
  tissue reactivity score: 1
[13]
  tissue reactivity score: 1
[14]
  tissue reactivity score: 1
[15]
  tissue reactivity score: 2
[16]
  tissue reactivity score: 1
[17]
  tissue reactivity score: 2
[18]
  tissue reactivity score: 2
[19]
  tissue reactivity score: 2
[20]
  tissue reactivity score: 1
[21]
  tissue reactivity score: 2
[22]
  tissue reactivity score: 2
[23]
  tissue reactivity score: 2
[24]
  tissue reactivity score: 1
[25]
  tissue reactivity score: 1
[26]
  tissue reactivity score: 1
[27]
  tissue reactivity score: 2
[28]
  tissue reactivity score: 2
[29]
  tissue reactivity score: 1
[30]
  tissue reactivity score: 1
[31]
  Reactive (% of samples), Bladder Cancer (Urothelial): 86%
  Reactive (% of samples), Breast Cancer: 79%
  Reactive (% of samples), Cervical Cancer (Squamous): 100%
  Reactive (% of samples), Esophageal Cancer (Squamous): 33%
  Reactive (% of samples), Head & Neck Cancer (Squamous): 87%
  Reactive (% of samples), Liver Cancer (HCC): 82%
  Reactive (% of samples), Non-Small Cell Lung Cancer: 90%
  Reactive (% of samples), Ovarian Cancer: 88%
  Reactive (% of samples), Renal Cancer: 47%
  Reactive (% of samples), Soft Tissue Sarcoma: 20%
  Reactive (% of samples), Stomach Cancer (Adenocarcinoma): 88%
  Reactive (% of samples), Testicular Cancer: 56%
  Reactive (% of samples), Thyroid Cancer: 31%
  Reactive (% of samples), Uterine Cancer: 92%
[32]
  Kd: 4.3 nM
  koff: 0.0021 s⁻¹
  kon: 490000 M⁻¹ s⁻¹
